The values that follow come from the Immune Epitope Database (IEDB).

Assay [1] concerns the target HLA-A*02:01. Description: IEDB peptide-MHC binding, purified MHC/competitive/fluorescence; ≥ and ≤ were set here for values at or beyond the usual limits of such assays.
A further assay addresses HLA-A*24:02. Description: IEDB peptide-MHC binding, purified MHC/competitive/radioactivity; filed as Kd, often an IC50 or EC50 that approximates it; ≥ and ≤ were set here for values at or beyond the usual limits of such assays.
A further assay concerns the target HLA-A*23:01. The description is as above.
For the next assay, the target named is HLA-A*32:01. Described as above.
The next assay concerns the target HLA-A*30:02. Described as above.
Assay [2] deals with HLA-A*01:01. The assay is described as above.
Another assay deals with HLA-A*26:01. The description is as above.
Assay [3] has as its target HLA-A*11:01. The assay is described as above. The note with it: source organism: Dengue virus 4 Philippines/H241/1956.
The target in the next assay is HLA-B*15:01. Description: IEDB peptide-MHC binding, purified MHC/direct/fluorescence; filed as Kd, often an IC50 or EC50 that approximates it; ≥ and ≤ were set here for values at or beyond the usual limits of such assays.
Another assay addresses HLA-A*30:01. Description: IEDB peptide-MHC binding, purified MHC/competitive/radioactivity; filed as Kd, often an IC50 or EC50 that approximates it; ≥ and ≤ were set here for values at or beyond the usual limits of such assays. Conditions: source organism: Dengue virus 2 Jamaica/1409/1983.
Another assay concerns the target HLA-A*68:01. The description is as above. Conditions: source organism: SARS coronavirus Tor2.
The target in assay [4] is HLA-A*31:01. The description is as above. The note with it: source organism: SARS coronavirus Tor2.
In another assay the target is HLA-A*33:01. Described as above. Conditions: source organism: SARS coronavirus Tor2.
Assay [5] concerns the target HLA-A*02:01. Description: IEDB peptide-MHC binding, purified MHC/competitive/fluorescence; filed as Kd, often an IC50 or EC50 that approximates it; ≥ and ≤ were set here for values at or beyond the usual limits of such assays.
The target in assay [6] is HLA-A*01:01. Description: IEDB peptide-MHC binding, purified MHC/direct/fluorescence; filed as Kd, often an IC50 or EC50 that approximates it; ≥ and ≤ were set here for values at or beyond the usual limits of such assays.
The target of assay [7] is HLA-A*02:01. Described as above. Conditions: source organism: Homo sapiens.
The target in another assay is HLA-A*03:01. The assay is described as above. The note with it: source organism: Homo sapiens.
In assay [8] the target is HLA-A*11:01. Described as above. Conditions: source organism: Homo sapiens.
In assay [9] the target is HLA-A*31:01. The description is as above. Conditions: source organism: Homo sapiens.
Another assay concerns the target HLA-B*40:01. The assay is described as above. Conditions: source organism: Mycobacterium tuberculosis variant bovis.
The mark [10] stands for this setting: source organism: Zaire ebolavirus.
The mark [11] stands for this setting: source organism: Dengue virus 4 Philippines/H241/1956.
[12] abbreviates: source organism: Dengue virus 1 Brazil/97-11/1997.
[13] abbreviates: source organism: Dengue virus 2 Peru/IQT2913/1996.
The mark [14] stands for this setting: source organism: Vaccinia virus WR.
[15] abbreviates: source organism: Sudan ebolavirus.
[16] abbreviates: source organism: Vaccinia virus Copenhagen.
The mark [17] stands for this setting: source organism: Dengue virus 2 Jamaica/1409/1983.

The IC50 is the concentration needed to halve the response being measured. With FKAALSSLA, in the assay with HLA-A*02:01 [1] (setting [10]), the IC50 is ≥ 109000 nM. The Kd is the equilibrium constant for the complex coming apart. For YYMATLKNV, the Kd with HLA-A*24:02 (setting [11]) worked out at 74.2 nM; in the assay with HLA-A*23:01 (setting [11]), 319 nM.

On to TNEVHTWTEQ, for which the equilibrium dissociation constant (Kd) with HLA-A*32:01 (setting [12]) was 5360 nM.

With ISGLFPVSI, the Kd with HLA-A*32:01 (setting [13]) amounted to 1260 nM. Regarding RLANNKVTI, the Kd with HLA-A*32:01 (setting [14]) was determined as 1.54 nM.

For EVTEIDQLV, the concentration for half-maximal inhibition (IC50) in the assay with HLA-A*02:01 [1] (setting [15]) was ≥ 86100 nM. DKKGKVVGLY: the Kd with HLA-A*30:02 (setting [13]) came to 2.56 nM. For the sequence VTDKEKPVNI, the Kd with HLA-A*01:01 [2] (setting [12]) is 15500 nM. For the sequence DTIETLMLLA, the equilibrium dissociation constant (Kd) in the assay with HLA-A*26:01 (setting [12]) was determined as 228 nM. Consider RSFEIINVL, for which the Kd in the assay with HLA-A*32:01 (setting [14]) was 2.9 nM.

As to GNLSPETLV, the IC50 with HLA-A*02:01 [1] (source organism: Vaccinia virus) was ≥ 106000 nM. For the sequence SALTLHWFRK, the dissociation constant Kd amounted to 18.4 nM with HLA-A*11:01 [3] and 1940 nM with HLA-A*32:01 (setting [11]). RLINNRVLF: the dissociation constant Kd with HLA-A*32:01 (setting [14]) was determined as 5.67 nM. As for LTIGVNYDI, the dissociation constant Kd with HLA-A*32:01 (setting [16]) came to 525 nM. As for TQFESLKIY, the Kd with HLA-B*15:01 (source organism: Influenza A virus (A/Chicken/Nanchang/2-220/2001(H3N6))) is 211 nM. As for TWAFCEVLTL, the Kd was 2230 nM with HLA-A*24:02 (setting [11]) and 237 nM with HLA-A*23:01 (setting [11]). In the assay with HLA-A*02:01 [1] (setting [15]), CLPPPPDGV came in with an IC50 of 1490 nM.

As to KTKNNDWDY, the values for the Kd with HLA-A*01:01 [2] (setting [12]) and with HLA-A*30:02 (setting [12]) were 595 nM and 15 nM, respectively. For WHLGKLEMDF, in the assay with HLA-A*23:01 (setting [17]), the dissociation constant Kd is 1880 nM.

Consider ITEMGRLPTF, for which the figures for the Kd with HLA-A*01:01 [2] (setting [17]) and in the assay with HLA-A*30:01 were 17500 nM and 9680 nM, respectively. With IDFLLRRWG, the half-inhibitory concentration (IC50) in the assay with HLA-A*02:01 [1] (setting [15]) was determined as 26200 nM. As to RGEDGCWYGM, the Kd with HLA-A*32:01 (setting [17]) is 11000 nM. AWRTIMAVLF: the Kd in the assay with HLA-A*24:02 (setting [11]) came out at 22.1 nM; with HLA-A*23:01 (setting [11]), 51.5 nM. Consider KMQRMLLEK, for which the Kd with HLA-A*68:01 was 1380 nM; in the assay with HLA-A*31:01 [4] it was 19 nM; with HLA-A*33:01, 13700 nM; with HLA-B*15:01 (source organism: SARS-CoV1), ≥ 40300 nM.

For the sequence LNIMNKLNI, the dissociation constant (Kd) with HLA-A*02:01 [5] (setting [16]) is 406 nM. For the sequence TSKKRSWPLN, the dissociation constant (Kd) in the assay with HLA-A*32:01 (setting [17]) is ≥ 38600 nM; with HLA-A*30:01, 4530 nM.

Regarding RTRPRWIPA, in the assay with HLA-A*01:01 [6] (source organism: Mycobacterium tuberculosis), the Kd was ≥ 20000 nM. For the sequence DLVHFASPL, the 50% inhibitory concentration (IC50) in the assay with HLA-A*02:01 [1] (source organism: Hepatitis B virus) was ≥ 366000 nM. For NVMAADPPK, the Kd with HLA-A*01:01 [6] (source organism: Yersinia pestis) is ≥ 20000 nM.

SQDTTIPDV showed an IC50 with HLA-A*02:01 [1] (setting [10]) of 5340 nM.

Turning to YLGSWATGK, the Kd with HLA-A*02:01 [7] was 15800 nM; with HLA-A*03:01 it was 257 nM; in the assay with HLA-A*11:01 [8] it was 1440 nM; with HLA-A*31:01 [9], 1960 nM. In the assay with HLA-A*02:01 [5] (source organism: Tupaia belangeri), RMPEAAPPV gave an equilibrium dissociation constant (Kd) of 0.5 nM.

Consider CLMTYSHHA, for which the equilibrium dissociation constant (Kd) with HLA-A*02:01 [5] (source organism: Escherichia coli F11) was 0.9 nM.

SEILPFTVL gave a Kd with HLA-B*40:01 of 14.7 nM.

Regarding EKMETLQRKY, the Kd with HLA-A*26:01 (setting [17]) was ≥ 20100 nM. Regarding MIMYLVLGI, the Kd with HLA-A*32:01 (setting [14]) was determined as 97.9 nM. As for VIWILIVAI, the equilibrium dissociation constant (Kd) with HLA-A*32:01 (setting [14]) is 198 nM. For NVHTWTEQY, the Kd with HLA-A*01:01 [2] (setting [17]) is 6040 nM. For the sequence EALKGLPIRY, in the assay with HLA-A*26:01 (source organism: Dengue virus 3 Martinique/1243/1999), the Kd was found to be 10100 nM. As for SWKLEKASF, the dissociation constant (Kd) in the assay with HLA-A*24:02 (source organism: Dengue virus 3 Singapore/8120/1995) was 153 nM.
